Consider 1 molecule from patent US20240384003A1 (PRECISION BIOLOGICS, published 2024).

The assay has as its target T1, CEACAM5-D2-312* (human, UniProt P06731 35-311).
T1 sequence (looked up): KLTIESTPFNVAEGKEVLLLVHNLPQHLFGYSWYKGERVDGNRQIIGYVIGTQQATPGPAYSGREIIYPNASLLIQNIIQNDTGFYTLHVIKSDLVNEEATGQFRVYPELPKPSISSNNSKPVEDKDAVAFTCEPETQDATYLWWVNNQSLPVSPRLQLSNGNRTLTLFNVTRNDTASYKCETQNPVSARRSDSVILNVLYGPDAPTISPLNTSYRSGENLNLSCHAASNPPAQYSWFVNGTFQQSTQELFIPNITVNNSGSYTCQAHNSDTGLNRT
The assay is described as follows: ELISA on truncated CEACAM5 from transfected-cell supernatant. As to the method:
Different truncated C-terminus CEACAM6 gene constructs were designed as illustrated in FIG. 13. […] Different truncated C-terminus CEACAM5 gene constructs were designed as illustrated in FIG. 15. The procedure for the expression of the truncated C-terminus constructs was the same as to the method described above. All deletions were transfected into HEK293T cells, harvest the cell pellet and/or supernatant after 48-72 hours. Supernatant binding activity was quantitated by ELISA.
In general terms: An ELISA detects its analyte on a solid surface through an enzyme-linked reagent.

B1: NEO-201 (antibody, human IgG1, kappa, V domains shown)
VH: QVQLVQSGAEVKKPGASVKVSCKASGYTFTDYAMHWVRQAPGQRLEWMGLISTYSGDTKYNQNFQGRVTMTVDKSASTAYMELSSLRSEDTAVYYCARGDYSGSRYWFAYWGQGTLVTVSS
VL: DIQMTQSPSSLSASVGDRVTITCQASENIYGALNWYQRKPGKSPKLLIYGASNLATGMPSRFSGSGSGTDYTFTISSLQPEDIATYYCQQVLSSPYTFGGGTKLEIKR
notes: also called H16C3-Abb*
Take B1: the binding result is listed as “no binding”.
